Among the targets are ETR1 1-407; ETR1 1-598; ETR1 1-307; ETR1 1-157.
What all share (test): MST
For assay [1], the target named is T1, full-length ETR1, purified and fluorescently labelled (Arabidopsis, UniProt P49333 1-738, fluorescent label (dye and site not stated)).
T1 chain: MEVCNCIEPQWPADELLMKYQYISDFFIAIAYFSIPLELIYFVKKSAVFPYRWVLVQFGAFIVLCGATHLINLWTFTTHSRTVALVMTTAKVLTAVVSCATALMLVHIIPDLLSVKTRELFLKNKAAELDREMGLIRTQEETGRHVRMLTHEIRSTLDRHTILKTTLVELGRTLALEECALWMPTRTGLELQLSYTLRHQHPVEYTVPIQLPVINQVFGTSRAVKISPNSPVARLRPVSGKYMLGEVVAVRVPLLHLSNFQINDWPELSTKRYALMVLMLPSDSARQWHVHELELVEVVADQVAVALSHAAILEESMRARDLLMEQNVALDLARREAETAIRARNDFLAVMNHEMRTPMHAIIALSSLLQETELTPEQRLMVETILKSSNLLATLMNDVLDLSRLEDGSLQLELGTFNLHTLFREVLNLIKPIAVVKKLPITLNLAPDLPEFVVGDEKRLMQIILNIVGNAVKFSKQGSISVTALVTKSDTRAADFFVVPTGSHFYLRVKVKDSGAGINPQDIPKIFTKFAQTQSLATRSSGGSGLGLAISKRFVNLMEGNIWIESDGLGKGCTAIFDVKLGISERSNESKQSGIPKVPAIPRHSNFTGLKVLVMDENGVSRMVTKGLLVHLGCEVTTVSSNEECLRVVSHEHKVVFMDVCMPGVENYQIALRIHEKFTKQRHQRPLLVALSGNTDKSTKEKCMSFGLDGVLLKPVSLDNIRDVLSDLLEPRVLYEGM

The term Kd denotes the constant that tells how readily two partners part at equilibrium. Lower therefore signals higher affinity.

Take MKPRLCFNFRRRSISPCYISISYLLVAKLFKLFKIH [synthetic full length PLS peptide PLS(FL)]: the Kd in the assay with ETR1 1-407 was found to be 1650 nM; with ETR1 1-598, 2920 nM; with ETR1 1-307, 1780 nM; with ETR1 1-157, 1520 nM; in assay [1], 1900 nM.

These data come from doi:10.1101/2023.06.15.545071 (2023).
